The data set relates to His6MBP-MP (TMV movement protein, 30 kDa) (Tobacco mosaic virus). Put plainly: EMSA. The following applies: 20 mM Tris-HCl pH 7.5, 35 mM KCl, 3.5 mM MgCl2, 5 U RNaseOUT, 10 ul, 30 min at 4 C; 6% native PAGE at 4 C, RNA blot detection; ssDNA/dsDNA competitors were ….

PSTVd WT full-length transcript, folded came in with a K half of 36 nM.

For the origin of these results see article PMC9829174.
